Patent US7790697B2, “Compositions and methods for inhibiting the synthesis or expression of MMP-1” (Trustees of Dartmouth College, priority 2004, dated 2010)

Tests used:
[1] = system: MDA-231 cells in type I collagen gel; assay: In vitro collagen gel destruction assay; format: cell-based; conditions: MDA-231 cells producing the shRNA
Procedure: In vitro Collagen Gel Destruction Assay. Collagen preparations were carried out on ice to prevent premature jelling. A solution of purified type I bovine collagen (Cohesion Technologies, Palo Alto, Calif.) was neutralized with a sterile 10× phosphate-buffered saline (pH 7.4), and 0.1 M NaOH. The solution of neutralized collagen (2 mg/mL) was mixed with an equivalent volume of cells suspended in serum free DMEM to yield a final concentration of 2×10^5 cells/mL in 1 mg/mL fibrillar collagen, and 1 mL of the collagen/cell mixture was added to each well of a six-well plate. After approximately 1 hour, the collagen jelled, and 1 mL of serum-free media was added on top of the gel. For some experiments, 25 μM ILOMASTAT® (CHEMICON®, Temecula, Calif.), 50 U/mL aprotinin (Sigma, St. Louis, Mo.), 1 μg/mL neutralizing MMP-1 antibody (MMP-1 ab-5; ONCOGENE™ Research Products, San Diego, Calif.), 1 μg/mL monoclonal FLAG® antibody (Sigma, St. Louis, Mo.), or 1% DMSO were added to the collagen before it jelled. After 36 hours of incubation at 37° C. the medium was removed from the top of collagen gels and weighed. The weight of media added at the start of the 37° C. incubation (1 gram) was subtracted from the total media weights to reveal the amount of media liberated by collagen gel destruction.
An in vitro collagen destruction assay was developed to determine whether the MMP-1 levels in MDA-231 cells with the empty vector were functionally capable of degrading a collagen matrix, and whether the shRNA-mediated reduction in MMP-1 was sufficient to change the invasive behavior of the cells. MDA-231 cells harboring either the empty vector or the MMP-1 shRNA were embedded in a solution of type I collagen (1 mL). The collagen was allowed to solidify at 37° C., and 1 mL of serum-free medium was layered on top of each gel. After 36 hours at 37° C., the medium was removed from each well and photographs were taken. No collagen was visible in wells containing MDA-231 cells with the empty vector. […] The medium removed from each well was weighed to quantitate the amount of medium liberated as the gel was destroyed. After 36 hours, approximately 1 mL (0.8±0.06 grams) of medium was liberated from the collagen gels containing the MDA-231 cells with the empty vector. […] Conversely, no medium (−0.01±0.03 grams) was liberated from collagen gels containing MDA-231 cells producing the MMP-1 shRNA. The slight decrease in the volume of medium recovered may be due to evaporation of the medium during the incubation period.

[2] = system: interferon-responsive genes; assay: Interferon response RT-PCR assay; format: cell-based, human; conditions: pooled stable MDA-231 cell lines
Procedure: Interferon Response RT-PCR Assay. RNA pooled from MDA-231 ells containing empty vector or the MMP-1 shRNA were reverse-transcribed with M-MLV reverse transcriptase (INVITROGEN™) according to the manufacturer's instructions. Briefly, 3 μg of RNA, 99 ng random hexamers, and 10 nmoles of dNTP were combined to a total volume of 12 μL. The mixture was incubated at 65° C. for 5 minutes and cooled to 4° C. Four μL of 5× […], 2 μL of 0.1 M DTT, and 1 μL of RNase inhibitor A (40 U/μL) were then added to the reaction and it was incubated at 37° C. for 2 minutes. One μL of M-MLV reverse transcriptase was added to the reaction and incubated at 25° C. for 10 minutes, 37° C. for 50 minutes and 70° C. for 15 minutes. The expression levels of 11 interferon-responsive genes and GAPDH were then estimated using semi-quantitative PCR and the human interferon-response MULTIGENE-12™ RT-PCR Profiling Kit (SuperArray Bioscience Co., Frederick, Md.).
To determine whether the MMP-1 shRNA was producing a shRNA-associated interferon response in the stable cell lines, the expression levels of 11 interferon-responsive genes was compared between pools of stable cell lines (Bridge, et al. (2003) Nat. Genet. 34:263-4).

MMP-1 mRNA = MMP-1 mRNA by real-time RT-PCR in transiently transfected NIH/3T3 cells; format: cell-based, human; conditions: NIH/3T3 cells co-transfected with pCMV-MMP-1 and peGFP; 48 hours after transfection; normalized to eGFP mRNA; P=0.015
Procedure: Transfection of NIH/3T3 and MDA-231 Cells. NIH/3T3 cells were transiently transfected with LIPOFECTAMINE™ 2000 (INVITROGEN™, Carlsbad, Calif.) along with 0.5 μg peGFP, 0.5 μg pCMV-MMP-1, and 2 μg PSUPER™-MMP-1 shRNA or PSUPER™ with no insert. Transfection efficiency was monitored using eGFP signal. Total cellular RNA was harvested 48 hours after transfection and analyzed for MMP-1 mRNA by real-time RT-PCR. MDA-231 cells were stably transfected in triplicate with LIPOFECTAMINE™ 2000 (INVITROGEN™, Carlsbad, Calif.) and 2 μg of the PSUPER™.Retro.Neo.GFP plasmid containing the MMP-1 shRNA, the scrambled sequence or just the empty vector. Stable cell lines were selected by growth in the presence of 1 mg/mL G418 (STRATAGENE®, La Jolla, Calif.). Individual, stable cell lines were isolated with cloning disks according to the manufacturer's instructions (PGC Scientifics, Frederick, Md.).
RNA Isolation and Real-Time RT-PCR.
To test the efficacy of the shRNA inhibition of MMP-1 expression, shRNA composed of SEQ ID NO:1 and SEQ ID NO:2 was cloned it into the PSUPER™ shRNA vector. Two PSUPER™ plasmids were used; one with the MMP-1 shRNA sequence to block MMP-1 gene expression, and one with only the plasmid vector. […]

B1: MMP-1 shRNA: Vector-expressed small hairpin RNA, SEQ ID NO:1 (sense) and SEQ ID NO:2 (antisense), specific to bases 234-252 of MMP-1 mRNA (nucleic acid)
sense: GATCCCCACCAGATGCTGAAACCCTGTTCAAGAGACAGGGTTTCAGCATCTGGTTTTTTGGAAA
antisense: AGCTTTTCCAAAAAACCAGATGCTGAAACCCTGTCTCTTGAACAGGGTTTCAGCATCTGGTGGG
modifications: the letters are possibly those of the target site
- appearance of collagen gel ([1]; 36 hours): appeared to be intact
- medium liberated from collagen gels ([1]; 36 hours at 37° C.): −0.01±0.03 grams
- collagen gel destruction ([1]; as long as five days): no collagen gel destruction
- interferon response overall (11 interferon-responsive genes) [2]: no consistent upregulation of interferon-responsive gene expression
- increase in expression of MxA and GBP1 compared to empty vector cell lines ([2]; semi-quantitative RT-PCR): ~50%
- MMP-1 mRNA levels lower than empty vector (MMP-1 mRNA): 73%
